Assay results reported in patent US20250340631A1 (HARBOUR BIOMED SHANGHAI, published 2025).
Substitutions are numbered along the chain they refer to. In names and notes the source's numbering stands.

B1: PR000400 (antibody, human IgG1, kappa, V domains shown)
VH: QVQLQQPGAELVRPGASVKLSCKASGYTFTSYWINWVKQRPGQGLEWIGNIYPSDSYTNYNQKFKDKATLTVDKSSSTAYMQLSSPTSEDSAVYYCTRSWRGNSFDYWGQGTTLTVSS
VL: DIVMTQSPSSLTVTAGEKVTMSCKSSQSLLNSGNQKNYLTWYQQKPGQPPKLLIYWASTRESGVPDRFTGSGSGTDFTLTISSVQAEDLAVYYCQNDYSYPFTFGSGTKLEIKR
notes: also called IMAB362 analogue
B2: PR004536 (antibody, V domains shown)
VH: EVQLVESGGGLVQPGGSLRLSCAASGFTFSSYWMYWVRQVPGKGLVWVSHINSDGSTTQYADSVKGRFTISRDNAKNMLYLQMNSLRAEDTAVYYCARDFPVLGGSHFDFQHWGQGTLVTVSS
notes: anti-CLDN18.2 HCAb: VH fused to human IgG1 Fc, no light chain; also called R1029P028A11
B3: PR004953 (antibody, V domains shown)
VH: EVQLVESGGGVVQPGRSLRLSCAASGFTFSSYGMHWVRQAPGKGLEWVAVIGYDGRNKYYADSVKGRFTISRDNSKNTLFLQMDNLRAEDTALYYCARHFPSLPGTTDTFDIRGPGTMVTVSS
notes: anti-CLDN18.2 HCAb: VH fused to human IgG1 Fc, no light chain; also called R1029P024B07
B4: PR004533 (antibody, V domains shown)
VH: EVQLVESGGGLVQPGGSLRLSCAASGFTFSSYWMHWVRQVPGKGLVWVSRINSDGSRTIYADSVKGRFTISRDNAKNTLYLQMNSLRAEDTAVYYCARGEDHDILTGYPIRGQGTTVTVSS
notes: anti-CLDN18.2 HCAb: VH fused to human IgG1 Fc, no light chain; also called R1029P021E10
B5: PR004949 (antibody, V domains shown)
VH: B4 VH with S31A, K43R, Y95L, I104M, I110V, T116M
notes: anti-CLDN18.2 HCAb: VH fused to human IgG1 Fc, no light chain; also called R1029P021C02
B6: PR004540 (antibody, V domains shown)
VH: B4 VH with S31I, W47L, N52S, S56N, R57Y, I59S, Y95L, I104M, I110V
notes: anti-CLDN18.2 HCAb: VH fused to human IgG1 Fc, no light chain; also called R1029P037B07
B7: PR004950 (antibody, V domains shown)
VH: B4 VH with S31A, T116M
notes: anti-CLDN18.2 HCAb: VH fused to human IgG1 Fc, no light chain; also called R1029P021F07
B8: PR004227 (antibody, V domains shown)
VH: EVQLVESGGGLVQPGGSLRLSCAASGFTFSSYWMHWVRQAPGKGLEWVSYINNDGSSTRYADSVKGRFTISRDNAKNTLYLQMNSLRAEDTAVYYCTEAPPYGNYERDYWGQGTLVTVSS
notes: anti-CLDN18.2 HCAb: VH fused to human IgG1 Fc, no light chain; also called R1029P(CG20)001B02
B9: PR007245 (antibody, human IgG1, V domains shown)
VH: B4 VH with N52S, G55A
notes: HCDR2 PTM-removal mutant of PR004533; HCAb, human IgG1 Fc; also called 4533_M6E6
B10: PR007246 (antibody, human IgG1, V domains shown)
VH: B4 VH with N52S, D54T
notes: HCDR2 PTM-removal mutant of PR004533; HCAb, human IgG1 Fc; also called 4533_M3F10
B11: PR007248 (antibody, human IgG1, V domains shown)
VH: B4 VH with S53H, G55S
notes: HCDR2 PTM-removal mutant of PR004533; HCAb, human IgG1 Fc; also called 4533_M10E7
B12: PR007244 (antibody, human IgG1, V domains shown)
VH: B4 VH with N52D, D54R
notes: HCDR2 PTM-removal mutant of PR004533; HCAb, human IgG1 Fc; also called 4533_M4H6
B13: PR007243 (antibody, human IgG1, V domains shown)
VH: B4 VH with N52S, D54A
notes: HCDR2 PTM-removal mutant of PR004533; HCAb, human IgG1 Fc; also called 4533_M3D9
B14: PR007242 (antibody, human IgG1, V domains shown)
VH: B4 VH with S53F, G55S
notes: HCDR2 PTM-removal mutant of PR004533; HCAb, human IgG1 Fc; also called 4533_M10E1
B15: PR002199 (bispecific antibody)
chain 1: not shown
chain 2: EVQLVESGGGLVQPGRSLRLSCAASGFTFDDYAMHWVRQAPGKGLEWVSGISWNSGSIGYADSVKGRFTISRDNAKNSLYLQMNSLRAEDTALYYCAKDSRGYGDYRLGGAYWGQGTLVTVSSASTKGPSVFPLAPSSKSTSGGTAALGCLVKDYFPEPVTVSWNSGALTSGVHTFPAVLQSSGLYSLSSVVTVPSSSLGTQTYICNVNHKPSNTKVDKKVEPKSCDKTHTCPPCPAPEAAGGPSVFLFPPKPKDTLMISRTPEVTCVVVDVSHEDPEVKFNWYVDGVEVHNAKTKPREEQYNSTYRVVSVLTVLHQDWLNGKEYKCKVSNKALGAPIEKTISKAKGQPREPQVYTLPPCREEMTKNQVSLWCLVKGFYPSDIAVEWESNGQPENNYKTTPPVLDSDGSFFLYSKLTVDKSRWQQGNVFSCSVMHEALHNHYTQKSLSLSPGK
chain 3: EVQLLESGGGLVQPGGSLRLSCAASGFTVSSYGMSWVRQAPGKGPEWVSGIRGSDGSTYYADSVKGRFTISRDNSKNTLYLQMNSLRAEDTAVYYCAKQGENDGPFDHRGQGTLVTVSSGGGGSEVQLLESGGGLVQPGGSLRLSCAASGFTVSSYGMSWVRQAPGKGPEWVSGIRGSDGSTYYADSVKGRFTISRDNSKNTLYLQMNSLRAEDTAVYYCAKQGENDGPFDHRGQGTLVTVSSASEPKSSDKTHTCPPCPAPEAAGGPSVFLFPPKPKDTLMISRTPEVTCVVVDVSHEDPEVKFNWYVDGVEVHNAKTKPREEQYNSTYRVVSVLTVLHQDWLNGKEYKCKVSNKALGAPIEKTISKAKGQPREPQVCTLPPSREEMTKNQVSLSCAVKGFYPSDIAVEWESNGQPENNYKTTPPVLDSDGSFFLVSKLTVDKSRWQQGNVFSCSVMHEALHNHYTQKSLSLSPGK
B16: PR007247 (antibody, human IgG1, V domains shown)
VH: B2 VH with S53P, D54L
notes: HCDR2 PTM-removal mutant of PR004536; HCAb, human IgG1 Fc; also called 4536_M8A6

These binders were tested against T1, human CLDN18.2 (human) (assay: competition FACS on HEK293/hCLDN18.2 cells; competitor 200 nM biotinylated PR004549).
T1 construct: the HEK293 line was made with a GenScript plasmid; also called hCLDN18.2
Experimental: (§1) This example is to study the binding of anti-human CLDN18.2 HCAb monoclonal antibodies to the epitope region of human CLDN18.2 antigen. Competitive binding experiments were performed at the cellular level using HEK293/hCLDN18.2 cells overexpressing human CLDN18.2. […] Then suspension of HEK293/hCLDN18.2 cells overexpressing human CLDN18.2 were adjusted to 3×10⁶ cells/mL, seeded 50 L/well. The cells were co-incubated at 4° C. for 2 h. The cells in each well were washed twice with 200 μL of pre-cooled FACS buffer (2% FBS in PBS) and centrifuged at 500 g at 4° C. for 5 min, and then the supernatant was discarded. […] The cells in each well were washed twice with 200 μL of pre-cooled FACS buffer (2% FBS in PBS) and centrifuged at 500 g at 4° C. for 5 min, and then the supernatant was discarded. Finally, the cells in each well were resuspended in 200 μL of pre-cooled FACS buffer, and the fluorescence signal values were read using a BD FACS CANTOII.
With B1 the IC50 was 11.5 nM and the “Maximum inhibition rate (%)” value was 90.7%. In the case of B2, the IC50 is reported as 74.1 nM and the “Maximum inhibition rate (%)” value is reported as 90.1%. For B3, the IC50 was 13.8 nM and the “Maximum inhibition rate (%)” value was 93.2%. For B4, the IC50 was 23.2 nM and the “Maximum inhibition rate (%)” value was 93.7%. With B5 the IC50 was 31 nM and the “Maximum inhibition rate (%)” value was 94.2%. B6 was tested, and the IC50 was 50 nM and the “Maximum inhibition rate (%)” value was 89.2%. B7 was tested, and the IC50 was 19.9 nM and the “Maximum inhibition rate (%)” value was 94.3%. B8 was tested, and the IC50 was 20.3 nM and the “Maximum inhibition rate (%)” value was 93.8%.

What follows are binders tested against T1, human CLDN18.2 (assay: FACS on NUGC4_D8 cells).
Experimental: (§2) The binding affinity of an antibody was detected by FACS using human CLDN18.1-expressing HEK293 cells, human CLDN18.2-expressing HEK293 cells, NUGC4_D8 cells and SNU601 cells endogenously expressing human CLDN18.2 (Cobioer, CBP60507). […] The cell density was adjusted to 10⁶ cells/mL, and 50 μL of the cell suspension was added to each well of a 96-well plate. Antibodies were diluted to different concentrations with FACS buffer, and 50 μL of the antibody dilution was added to each well of the 96-well plate. After 2 h of incubation at 4° C., the plate was washed twice with FACS buffer. […] After 1 h of incubation at 4° C., the plate was washed twice with FACS buffer. The cells were resuspended in fixative solution, and then the fluorescence of the cells was monitored using an FACS instrument (ACEA NovoCyte).
For B1, the EC50 was 56.4 nM and the “Emax (MFI)” value was 58400 MFI. With B9 the EC50 was 63.2 nM and the “Emax (MFI)” value was 137000 MFI. For B10, the EC50 was 55.9 nM and the “Emax (MFI)” value was 166000 MFI. B11 was tested, and the EC50 was 74.6 nM and the “Emax (MFI)” value was 174000 MFI. In the case of B12, the EC50 is reported as 49.2 nM and the “Emax (MFI)” value is reported as 153000 MFI. With B13 the EC50 was 78.2 nM and the “Emax (MFI)” value was 176000 MFI. B14 was tested, and the EC50 was 69.5 nM and the “Emax (MFI)” value was 176000 MFI.

Biological target: T1, human CLDN18.2
Assay: competition FACS on HEK293/hCLDN18.2 cells; competitor 200 nM biotinylated PR004549
Remark: another data set of the same source
Experimental: (§3) This example is to study the binding of anti-human CLDN18.2 bispecific antibodies to the epitope region of a human CLDN18.2 antigen. Competitive binding experiments were performed at the cellular level using human CLDN18.2-overexpressing HEK293/hCLDN18.2 cells. […] The mixture was well mixed and incubated at 4° C. for 30 min. 25 μL of the corresponding serially diluted non-biotinylated anti-human CLDN18.2 antibody was added. The mixture was well mixed and incubated at 4° C. for 1 h. The cells in each well were washed twice with 200 μL of pre-cooled FACS buffer (2% BSA in DPBS) and centrifuged at 500 g at 4° C. for 5 min, and then the supernatant was discarded. A fluorescent secondary antibody (Jackson ImmunoResearch, 016-540-084, 1:500) was added. The mixture was incubated at 4° C. in the absence of light for 1 h. The cells in each well were washed twice with 200 μL of pre-cooled FACS buffer (2% BSA in DPBS) and centrifuged at 500 g at 4° C. for 5 min, and then the supernatant was discarded. Finally, the cells in each well were resuspended in 200 μL of pre-cooled FACS buffer, and the fluorescence signal values were read using a ACEA_NovoCyte.
B1 was tested, and the IC50 was 25.2 nM and the “Maximum inhibition rate (%)” value was 52.3%.

These binders were tested against T1, human CLDN18.2 (assay: competition FACS on HEK293/hCLDN18.2 cells; competitor 10 nM biotinylated PR000400).
Experimental: as §1
In the case of B1, the IC50 is reported as 20.1 nM and the “Maximum inhibition rate (%)” value is reported as 96.4%. B2 was tested, and the IC50 was 103 nM and the “Maximum inhibition rate (%)” value was 98%. For B3, the IC50 was 16.7 nM and the “Maximum inhibition rate (%)” value was 98%. For B4, the IC50 was 25.5 nM and the “Maximum inhibition rate (%)” value was 98.6%. For B5, the IC50 was 35.4 nM and the “Maximum inhibition rate (%)” value was 98.5%. For B6, the IC50 was 64.1 nM and the “Maximum inhibition rate (%)” value was 95.8%. In the case of B7, the IC50 is reported as 23.5 nM and the “Maximum inhibition rate (%)” value is reported as 98.5%. B8 was tested, and the IC50 was 22.3 nM and the “Maximum inhibition rate (%)” value was 98.3%.

What follows are binders tested against T1, human CLDN18.2 (assay: FACS on SNU601 cells).
Experimental: as §2
With B2 the EC50 was 52.7 nM and the “Emax (MFI)” value was 15800 MFI. With B4 the EC50 was 11.9 nM and the “Emax (MFI)” value was 11300 MFI. B5 was tested, and the EC50 was 12.8 nM and the “Emax (MFI)” value was 18300 MFI. For B7, the EC50 was 14.6 nM and the “Emax (MFI)” value was 13600 MFI. In the case of B8, the EC50 is reported as 28.5 nM and the “Emax (MFI)” value is reported as 14800 MFI.

Biological target: T1, human CLDN18.2
Assay: FACS on NUGC4_D8 cells
Remark: another data set of the same source
Experimental: as §2
With B1 the EC50 was 17 nM and the “Emax (MFI)” value was 101000 MFI. For B3, the EC50 was 12 nM and the “Emax (MFI)” value was 219000 MFI. B4 was tested, and the EC50 was 25 nM and the “Emax (MFI)” value was 183000 MFI. For B5, the EC50 was 21.8 nM and the “Emax (MFI)” value was 265000 MFI. For B7, the EC50 was 16.1 nM and the “Emax (MFI)” value was 206000 MFI.

What follows are binders tested against T2, Biotinylated human CD3E&D (human, UniProt P07766 23-126; P04234 22-105, biotin label) (assay: BLI (Octet), biotinylated CD3 on SA sensor, 1:1 global fit;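 further: antibodies applied as analyte in 2-fold serial dilutions, with a 180 s association phase followed by a 300 s dissociation phase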).
T2 construct: also called CDD-H82W6
T2 sequence (P07766 23-126, chain 1 of 2): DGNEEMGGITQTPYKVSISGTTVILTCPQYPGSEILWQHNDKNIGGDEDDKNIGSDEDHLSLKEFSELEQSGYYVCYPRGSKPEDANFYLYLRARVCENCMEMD
T2 sequence (P04234 22-105, chain 2 of 2): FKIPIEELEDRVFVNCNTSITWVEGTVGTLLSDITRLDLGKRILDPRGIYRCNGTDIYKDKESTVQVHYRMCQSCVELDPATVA
A Kd of 241 nM, a koff of 0.0518 s⁻¹ and a kon of 215000 M⁻¹ s⁻¹ were found for B15 in this work.

Biological target: T1, human CLDN18.2
Assay: competition FACS on HEK293/hCLDN18.2 cells; competitor 10 nM biotinylated PR000400
Remark: another data set of the same source
Experimental: as §3
For B1, the IC50 was 36.2 nM and the “Maximum inhibition rate (%)” value was 92.7%.

Each binder was assayed against T1, human CLDN18.2 (assay: FACS on HEK293/hCLDN18.2 cells).
Experimental: as §2
In the case of B1, the EC50 is reported as 5.6 nM and the “Emax (MFI)” value is reported as 1.32e+06 MFI. B16 was tested, and the EC50 was 35.3 nM and the “Emax (MFI)” value was 1.27e+06 MFI. With B9 the EC50 was 13 nM and the “Emax (MFI)” value was 1.31e+06 MFI. With B10 the EC50 was 14.4 nM and the “Emax (MFI)” value was 1.37e+06 MFI. For B11, the EC50 was 12.8 nM and the “Emax (MFI)” value was 1.31e+06 MFI. For B12, the EC50 was 11.7 nM and the “Emax (MFI)” value was 1.3e+06 MFI. B13 was tested, and the EC50 was 13.3 nM and the “Emax (MFI)” value was 1.47e+06 MFI. B14 was tested, and the EC50 was 11.3 nM and the “Emax (MFI)” value was 1.48e+06 MFI.
